Laboratory results taken from patent WO2008131575A2 (dated 2008).

Molecular target: T1, human ALK epitope peptide (amino acids 391-406 of the ALK protein) (human)
T1 construct: the underscore is a remnant of the underlining; In the yeast screen it was fused to LexA; in the ELISA it is called the Alk LBD peptide; also called Alk LBD peptide; AIk LBD
T1 peptide: GRIGRPDNPFRVALEY
Assay: ELISA (Fig. 5)

B1: scFv 28.11 (scFv)
scFv: QSVLTQPPSVSAAPGQKVTISCSGSTSNIGDNYVSWYQQLPGTAPQLLIYDNTKRPSGIPDRFSGSKSGTSATLGITGLQTGDEADYYCATWDNDKWGVVFGGGTKLEVLGGGGGSGGGGSGGGGSSGGGSEVQLVESGGGLVQPGGSLRLSCAASGFTFSSYAMSWVRQAPGKGLEWVSAIETSSGSTYYADSVKGRFTISRDNSKNTLYLQMNSLRAEDTAVYYCARDAWLDVLSDGFDYWGQGTLVTVSS
Kd: 2 to 3 nM
